This note sets out measurements from article PMC3344845, “Structure of Bradavidin – C-Terminal Residues Act as Intrinsic Ligands” (PLoS ONE, 2012).

pKd: −log10 of the molar value.

Assay [1] deals with core-bradavidin (Bradyrhizobium japonicum). As to the kind of experiment: ITC; core-bradavidin in the cell, Brad-tag–EGFP in the syringe, 25°C, 50 mM sodium phosphate pH 7.0, 100 mM NaCl; n is the stoichiometry per subunit. For orientation: In ITC the heat of successive injections is recorded.
The target is the same in assay [2]. As to the kind of experiment: ITC; core-bradavidin in the cell, ligand (Brad-tag or Brad-tag–EGFP) in the syringe, 15°C, 50 mM sodium phosphate pH 7.0, 100 mM NaCl; n is the stoichiometry per subunit.
The target in assay [3] is Brad-tag–EGFP–His-tag fusion protein (Bradyrhizobium japonicum). As to the kind of experiment: BLI; Octet RED384; Brad-tag–EGFP–His-tag (0.03 mg/ml, 700 s) held on anti-Penta-HIS biosensors; higher concentrations: core-bradavidin 0.5, wt bradavidin 1.2, avidin 1.8, streptavidin 1.7, rhizavidin 2.0 mg/ml for 200 s; controls with biotin (3.2 mM for core-bradavidin, 13 mM for avidin) and plain sensors; 30°C.

The pKd is the negative decadic logarithm of the Kd, by convention in mol/L. A high value points to a small Kd. By stoichiometry N is commonly meant a count of units in the complex or per binding partner.

For “Brad-tag–EGFP fusion protein (without His-tag)”, in assay [1], the pKd is 5.51, the dH is -1 kcal mol^–1 and the stoichiometry N worked out at 0.68. In assay [2], this substance had a pKd of 5.55, a dH of -0.5 kcal mol^–1 and a stoichiometry N of 0.68.

core-bradavidin (domain or fragment): the shift (BLI response) in assay [3] is 1.2 nm.
